Data published in patent CN117751139A (YONGXIAN PHARMACEUTICAL CO LTD; UNIV AIX MARSEILLE; INST …, dated 2024).
Each block holds one binder with its values, some of them ahead of it.

Columns and labels:
[1] = target: T1, Nectin-4 extracellular domain Fc fusion recombinant protein (Nec4-VCC) (human, UniProt Q96NY8 32-349); experiment: statement in the legend of the competition ELISA on coated Nec4-VCC
T1 construct: extracellular domain; also called Nectin-4-VCC-Fc; not shown: Fc part
T1 sequence (looked up): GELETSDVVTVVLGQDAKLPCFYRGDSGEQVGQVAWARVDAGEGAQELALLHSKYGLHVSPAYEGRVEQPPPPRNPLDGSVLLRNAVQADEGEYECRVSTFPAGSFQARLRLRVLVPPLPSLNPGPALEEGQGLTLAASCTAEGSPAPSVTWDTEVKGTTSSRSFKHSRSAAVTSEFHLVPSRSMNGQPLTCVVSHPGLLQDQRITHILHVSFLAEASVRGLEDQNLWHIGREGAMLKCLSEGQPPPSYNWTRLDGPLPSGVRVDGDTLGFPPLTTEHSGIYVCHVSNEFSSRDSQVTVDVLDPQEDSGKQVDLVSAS

[2] = target: T2, Nectin-1 extracellular domain Fc fusion recombinant protein (Nec1-VCC) (UniProt Q15223 31-355, limits assumed); experiment: ELISA, Nec1-VCC coated on plate, peroxidase-conjugated Ch-15A7.5
T2 construct: extracellular domain; also called Nectin-1-VCC-Fc; not shown: Fc part
T2 sequence (looked up): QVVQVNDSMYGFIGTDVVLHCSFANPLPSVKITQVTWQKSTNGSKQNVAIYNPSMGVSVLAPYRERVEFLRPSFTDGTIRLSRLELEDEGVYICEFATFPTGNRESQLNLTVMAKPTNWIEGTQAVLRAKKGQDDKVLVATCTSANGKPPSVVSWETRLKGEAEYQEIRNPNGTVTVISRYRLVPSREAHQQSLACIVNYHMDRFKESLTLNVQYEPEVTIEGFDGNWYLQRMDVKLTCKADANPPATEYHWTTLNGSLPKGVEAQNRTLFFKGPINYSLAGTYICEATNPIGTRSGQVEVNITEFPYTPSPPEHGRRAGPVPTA

[3] = target: T3, Nectin-4 expressed by normal differentiated human keratinocytes (NHEK) (human, UniProt Q96NY8 32-510); experiment: flow cytometry on normal differentiated human keratinocytes (NHEK), 8 pM-33 nM; reference of the comparison
T3 construct: whole, on cells; also called Nectin-4 on NHEK; keratinocyte Nectin-4
T3 sequence (looked up): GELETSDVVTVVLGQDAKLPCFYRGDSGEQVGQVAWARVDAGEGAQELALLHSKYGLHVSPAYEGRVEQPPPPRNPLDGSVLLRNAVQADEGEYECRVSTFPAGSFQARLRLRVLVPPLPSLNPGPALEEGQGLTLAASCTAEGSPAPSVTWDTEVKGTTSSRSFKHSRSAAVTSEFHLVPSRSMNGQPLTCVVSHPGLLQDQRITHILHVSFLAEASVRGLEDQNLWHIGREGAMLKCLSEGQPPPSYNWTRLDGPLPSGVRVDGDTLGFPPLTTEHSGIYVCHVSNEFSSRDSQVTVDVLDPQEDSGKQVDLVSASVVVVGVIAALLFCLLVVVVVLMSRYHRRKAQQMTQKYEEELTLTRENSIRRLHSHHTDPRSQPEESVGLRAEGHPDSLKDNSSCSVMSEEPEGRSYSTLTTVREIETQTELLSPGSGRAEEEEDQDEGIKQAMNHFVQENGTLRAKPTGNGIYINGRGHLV

[4] = target: T4, human Nectin-4 on CHO cells transfected with human Nectin-4 cDNA (human, UniProt Q96NY8 32-510); experiment: flow cytometry competition on CHO cells with human Nectin-4; competitor Nec1-VCC
T4 construct: whole, on cells
T4 sequence (looked up): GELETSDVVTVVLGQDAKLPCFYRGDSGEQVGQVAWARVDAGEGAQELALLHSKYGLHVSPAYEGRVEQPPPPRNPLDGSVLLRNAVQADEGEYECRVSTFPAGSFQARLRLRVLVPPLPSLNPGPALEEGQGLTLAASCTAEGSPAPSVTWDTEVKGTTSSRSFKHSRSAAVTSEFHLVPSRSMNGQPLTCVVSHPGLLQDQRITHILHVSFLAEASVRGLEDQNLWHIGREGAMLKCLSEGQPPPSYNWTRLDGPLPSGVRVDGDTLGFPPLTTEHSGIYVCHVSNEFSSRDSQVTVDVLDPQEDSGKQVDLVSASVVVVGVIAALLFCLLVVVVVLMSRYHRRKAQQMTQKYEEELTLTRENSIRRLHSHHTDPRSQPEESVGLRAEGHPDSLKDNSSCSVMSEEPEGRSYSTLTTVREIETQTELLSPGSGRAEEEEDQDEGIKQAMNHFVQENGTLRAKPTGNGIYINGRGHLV

[5] = target: T5, human Nectin-4 with N-terminal Flag epitope tag, on transfected MDA-MB231 cells (human, UniProt Q96NY8 32-510); experiment: flow cytometry on MDA-MB231 cells transfected with N-terminally Flag-tagged Nectin-4
T5 construct: whole, on cells; also called PVRL4; PRR4
T5 sequence (looked up): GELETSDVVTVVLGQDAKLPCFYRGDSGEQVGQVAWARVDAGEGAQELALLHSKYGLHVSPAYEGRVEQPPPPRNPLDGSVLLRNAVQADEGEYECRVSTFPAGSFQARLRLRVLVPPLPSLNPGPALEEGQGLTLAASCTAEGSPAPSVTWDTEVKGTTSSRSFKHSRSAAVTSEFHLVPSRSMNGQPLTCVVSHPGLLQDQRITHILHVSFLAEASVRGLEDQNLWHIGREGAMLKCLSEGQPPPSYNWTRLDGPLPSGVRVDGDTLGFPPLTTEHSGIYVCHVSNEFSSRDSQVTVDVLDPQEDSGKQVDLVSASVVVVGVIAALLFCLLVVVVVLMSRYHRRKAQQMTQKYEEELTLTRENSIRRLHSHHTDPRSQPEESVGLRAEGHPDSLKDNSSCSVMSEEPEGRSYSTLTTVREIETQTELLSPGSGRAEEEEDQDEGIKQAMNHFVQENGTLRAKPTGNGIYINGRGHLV

binding result [1]: binds
B1: HA22 (enfortumab) (antibody, V domains shown)
VH: EVQLVESGGGLVQPGGSLRLSCAASGFTFSSYNMNWVRQAPGKGLEWVSYISSSSSTIYYADSVKGRFTISRDNAKNSLSLQMNSLRDEDTAVYYCARAYYYGMDVWGQGTTVTVSS
VL: DIQMTQSPSSVSASVGDRVTITCRASQGISGWLAWYQQKPGKAPKFLIYAASTLQSGVPSRFSGSGSGTDFTLTISSLQPEDFATYYCQQANSFPPTFGGGTKVEIK
notes: also called 恩弗妥单抗; HA22 mAb

binding result [2]: no binding (tested: 10nM)
B2: Ch-15A7.5 (antibody, V domains shown)
VH: EVKLVESGGGLVQPGGSRKLSCAASGFTFSNYGMAWVRQAPGKGPEWVAFISNLAYGINYADTVTGRFTISRENAKNTLYLEMRSLRSEDTAMYYCARGARATGWFAYWGQGTLVTVSA
VL: DIVMTQSQKFMSTSIGDRVSVTCKASQNVDTHVAWYQEKPGQSPKALIYSASYRYSGVPDRFTGSGSGTDFTLTISNVQSEDLADYFCQQYNSYPLTFGGGTKLEIK
notes: also called Ch-15A7.5 mAb; Ch-15A7 mAb

binding result [3]: binds
binding result [4]: binds
binding result [5]: binds
B3: Ch-5A12.2 (antibody, V domains shown)
VH: QIQLQQSGAELVKPGASVTLSCKTSGFTFNSMYISWLKQKPGQSLEWIAWIYAGTGGTRFNQKFTGKVQLTVDTSSSTAYMQFSSLTTDDSAIYYCAIRSGFVPMDYWGQGTSVTVSS
VL: SIVMTQTPKFLLVSAGDRVTITCKASQSVSNDVAWYQQKPGQSPKLLIYYASNRYTGVPDRFTGSGYGTDFTFTISTVQAEDLAVYFCQQDYSSPWTFGGGTKLEIK
notes: also called 5A12.2 mAb; chimeric 5A12.2
